Laboratory results from patent US12679878B2, “CRF2 receptor agonists and their use in therapy” (SANOFI, priority 2020, dated 2026).
Starred links: 1 amine or outer side, 2 acyl side, 3 side chain; linkers in the order of their positions; H or OH if unused. Non-standard residues stand in square brackets, D forms with d. Groups on a side chain read outwards from the residue. No end group written: not given here. *: point of attachment. γGlu = O=C(O)[C@H](CCC(=O)[*:2])N[*:1]; Palmitoyl = CCCCCCCCCCCCCCCC(=O)*; Aib = CC(C)(N)C(=O)O

T1: CRF1R receptor (anti-target) (UniProt P34998 24-415, limits assumed)
T1 sequence (looked up): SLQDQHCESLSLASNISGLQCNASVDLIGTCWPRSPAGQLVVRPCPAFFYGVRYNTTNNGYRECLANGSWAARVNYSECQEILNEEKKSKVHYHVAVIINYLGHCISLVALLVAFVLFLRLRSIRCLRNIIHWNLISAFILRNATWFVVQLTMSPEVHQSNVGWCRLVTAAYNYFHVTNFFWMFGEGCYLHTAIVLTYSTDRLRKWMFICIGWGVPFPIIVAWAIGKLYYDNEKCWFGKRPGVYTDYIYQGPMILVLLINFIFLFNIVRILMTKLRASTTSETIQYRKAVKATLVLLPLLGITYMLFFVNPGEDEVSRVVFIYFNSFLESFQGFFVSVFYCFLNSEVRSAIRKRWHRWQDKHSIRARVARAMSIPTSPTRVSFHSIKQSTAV


How the values were obtained:
Experiment in all cases: cell-based or functional assay
[1] = biological target: human corticotropin-releasing factor 2α (CRF2α receptor) (human), Q13324
[2] = biological target: human corticotropin-releasing factor 2α receptor (CRF2α receptor) (human), Q13324
[3] = biological target: T1, CRF1R receptor (anti-target)

| Binder | EC50 [nM], 0% HSA (cAMP, HTRF) [1] [nM] | CRF2 EC50 (cAMP, HTRF) [2] [nM] | CRF1/CRF2 ratio (of EC50) [3] | CRF1 EC50 (cAMP, HTRF) [3] [nM] |
| --- | --- | --- | --- | --- |
| IVLSLD[dV]PIKLK([γGlu-Palmitoyl])QILLKQARQK[Aib]QRAQAEKNKRILERV-NH2 (N-terminus assumed; SMILES CCCCCCCCCCCCCCCC(=O)N[C@@H](CCC(=O)NCCCC[C@H](NC(=O)[C@H](CC(C)C)NC(=O)[C@H](CCCCN)NC(=O)[C@@H](NC(=O)[C@@H]1CCCN1C(=O)[C@H](NC(=O)[C@H](CC(=O)O)NC(=O)[C@H](CC(C)C)NC(=O)[C@H](CO)NC(=O)[C@H](CC(C)C)NC(=O)[C@@H](NC(=O)[C@@H](N)[C@@H](C)CC)C(C)C)C(C)C)[C@@H](C)CC)C(=O)N[C@@H](CCC(N)=O)C(=O)N[C@H](C(=O)N[C@@H](CC(C)C)C(=O)N[C@@H](CC(C)C)C(=O)N[C@@H](CCCCN)C(=O)N[C@@H](CCC(N)=O)C(=O)N[C@@H](C)C(=O)N[C@@H](CCCNC(=N)N)C(=O)N[C@@H](CCC(N)=O)C(=O)N[C@@H](CCCCN)C(=O)NC(C)(C)C(=O)N[C@@H](CCC(N)=O)C(=O)N[C@@H](CCCNC(=N)N)C(=O)N[C@@H](C)C(=O)N[C@@H](CCC(N)=O)C(=O)N[C@@H](C)C(=O)N[C@@H](CCC(=O)O)C(=O)N[C@@H](CCCCN)C(=O)N[C@@H](CC(N)=O)C(=O)N[C@@H](CCCCN)C(=O)N[C@@H](CCCNC(=N)N)C(=O)N[C@H](C(=O)N[C@@H](CC(C)C)C(=O)N[C@@H](CCC(=O)O)C(=O)N[C@@H](CCCNC(=N)N)C(=O)N[C@H](C(N)=O)C(C)C)[C@@H](C)CC)[C@@H](C)CC)C(=O)O) [peptide of SEQ ID NO: 219] | 5.98 | 5.98 | 2 | 13.5 |
| IVLSLD[dV]PIGLK([γGlu-Palmitoyl])QILLKQERQKK[Aib]RQQAETNKRILERV-NH2 (N-terminus assumed; SMILES CCCCCCCCCCCCCCCC(=O)N[C@@H](CCC(=O)NCCCC[C@H](NC(=O)[C@H](CC(C)C)NC(=O)CNC(=O)[C@@H](NC(=O)[C@@H]1CCCN1C(=O)[C@H](NC(=O)[C@H](CC(=O)O)NC(=O)[C@H](CC(C)C)NC(=O)[C@H](CO)NC(=O)[C@H](CC(C)C)NC(=O)[C@@H](NC(=O)[C@@H](N)[C@@H](C)CC)C(C)C)C(C)C)[C@@H](C)CC)C(=O)N[C@@H](CCC(N)=O)C(=O)N[C@H](C(=O)N[C@@H](CC(C)C)C(=O)N[C@@H](CC(C)C)C(=O)N[C@@H](CCCCN)C(=O)N[C@@H](CCC(N)=O)C(=O)N[C@@H](CCC(=O)O)C(=O)N[C@@H](CCCNC(=N)N)C(=O)N[C@@H](CCC(N)=O)C(=O)N[C@@H](CCCCN)C(=O)N[C@@H](CCCCN)C(=O)NC(C)(C)C(=O)N[C@@H](CCCNC(=N)N)C(=O)N[C@@H](CCC(N)=O)C(=O)N[C@@H](CCC(N)=O)C(=O)N[C@@H](C)C(=O)N[C@@H](CCC(=O)O)C(=O)N[C@H](C(=O)N[C@@H](CC(N)=O)C(=O)N[C@@H](CCCCN)C(=O)N[C@@H](CCCNC(=N)N)C(=O)N[C@H](C(=O)N[C@@H](CC(C)C)C(=O)N[C@@H](CCC(=O)O)C(=O)N[C@@H](CCCNC(=N)N)C(=O)N[C@H](C(N)=O)C(C)C)[C@@H](C)CC)[C@@H](C)O)[C@@H](C)CC)C(=O)O) [peptide of SEQ ID NO: 220] | 1.48 | 1.48 | 6 | 8.91 |
| IVLSLD[dV]PIKLK([γGlu-Palmitoyl])QILLKQERQKKQRQQAEKNKQILAQV-NH2 (N-terminus assumed; SMILES CCCCCCCCCCCCCCCC(=O)N[C@@H](CCC(=O)NCCCC[C@H](NC(=O)[C@H](CC(C)C)NC(=O)[C@H](CCCCN)NC(=O)[C@@H](NC(=O)[C@@H]1CCCN1C(=O)[C@H](NC(=O)[C@H](CC(=O)O)NC(=O)[C@H](CC(C)C)NC(=O)[C@H](CO)NC(=O)[C@H](CC(C)C)NC(=O)[C@@H](NC(=O)[C@@H](N)[C@@H](C)CC)C(C)C)C(C)C)[C@@H](C)CC)C(=O)N[C@@H](CCC(N)=O)C(=O)N[C@H](C(=O)N[C@@H](CC(C)C)C(=O)N[C@@H](CC(C)C)C(=O)N[C@@H](CCCCN)C(=O)N[C@@H](CCC(N)=O)C(=O)N[C@@H](CCC(=O)O)C(=O)N[C@@H](CCCNC(=N)N)C(=O)N[C@@H](CCC(N)=O)C(=O)N[C@@H](CCCCN)C(=O)N[C@@H](CCCCN)C(=O)N[C@@H](CCC(N)=O)C(=O)N[C@@H](CCCNC(=N)N)C(=O)N[C@@H](CCC(N)=O)C(=O)N[C@@H](CCC(N)=O)C(=O)N[C@@H](C)C(=O)N[C@@H](CCC(=O)O)C(=O)N[C@@H](CCCCN)C(=O)N[C@@H](CC(N)=O)C(=O)N[C@@H](CCCCN)C(=O)N[C@@H](CCC(N)=O)C(=O)N[C@H](C(=O)N[C@@H](CC(C)C)C(=O)N[C@@H](C)C(=O)N[C@@H](CCC(N)=O)C(=O)N[C@H](C(N)=O)C(C)C)[C@@H](C)CC)[C@@H](C)CC)C(=O)O) [peptide of SEQ ID NO: 214] | 4.15 | 4.15 | 1 | 4.27 |

More lines, now with the values ahead:

| EC50 [nM], 0% HSA (cAMP, HTRF) [1] [nM] | CRF2 EC50 (cAMP, HTRF) [2] [nM] | CRF1/CRF2 ratio (of EC50) [3] | CRF1 EC50 (cAMP, HTRF) [3] [nM] | Binder |
| --- | --- | --- | --- | --- |
| 1.58 | 1.58 | 4 | 6.97 | IVLSLD[dV]PIGLK([γGlu-Palmitoyl])QILLKQERQKK[Aib]REQAEKNKRILERV-NH2 (N-terminus assumed; SMILES CCCCCCCCCCCCCCCC(=O)N[C@@H](CCC(=O)NCCCC[C@H](NC(=O)[C@H](CC(C)C)NC(=O)CNC(=O)[C@@H](NC(=O)[C@@H]1CCCN1C(=O)[C@H](NC(=O)[C@H](CC(=O)O)NC(=O)[C@H](CC(C)C)NC(=O)[C@H](CO)NC(=O)[C@H](CC(C)C)NC(=O)[C@@H](NC(=O)[C@@H](N)[C@@H](C)CC)C(C)C)C(C)C)[C@@H](C)CC)C(=O)N[C@@H](CCC(N)=O)C(=O)N[C@H](C(=O)N[C@@H](CC(C)C)C(=O)N[C@@H](CC(C)C)C(=O)N[C@@H](CCCCN)C(=O)N[C@@H](CCC(N)=O)C(=O)N[C@@H](CCC(=O)O)C(=O)N[C@@H](CCCNC(=N)N)C(=O)N[C@@H](CCC(N)=O)C(=O)N[C@@H](CCCCN)C(=O)N[C@@H](CCCCN)C(=O)NC(C)(C)C(=O)N[C@@H](CCCNC(=N)N)C(=O)N[C@@H](CCC(=O)O)C(=O)N[C@@H](CCC(N)=O)C(=O)N[C@@H](C)C(=O)N[C@@H](CCC(=O)O)C(=O)N[C@@H](CCCCN)C(=O)N[C@@H](CC(N)=O)C(=O)N[C@@H](CCCCN)C(=O)N[C@@H](CCCNC(=N)N)C(=O)N[C@H](C(=O)N[C@@H](CC(C)C)C(=O)N[C@@H](CCC(=O)O)C(=O)N[C@@H](CCCNC(=N)N)C(=O)N[C@H](C(N)=O)C(C)C)[C@@H](C)CC)[C@@H](C)CC)C(=O)O) [peptide of SEQ ID NO: 218] |
| 1.23 | 1.23 | 1 | 0.9 | IVLSLD[dV]PIKLK([γGlu-Palmitoyl])QILLKQERQKKQREQAEKNKQILEQV-NH2 (N-terminus assumed; SMILES CCCCCCCCCCCCCCCC(=O)N[C@@H](CCC(=O)NCCCC[C@H](NC(=O)[C@H](CC(C)C)NC(=O)[C@H](CCCCN)NC(=O)[C@@H](NC(=O)[C@@H]1CCCN1C(=O)[C@H](NC(=O)[C@H](CC(=O)O)NC(=O)[C@H](CC(C)C)NC(=O)[C@H](CO)NC(=O)[C@H](CC(C)C)NC(=O)[C@@H](NC(=O)[C@@H](N)[C@@H](C)CC)C(C)C)C(C)C)[C@@H](C)CC)C(=O)N[C@@H](CCC(N)=O)C(=O)N[C@H](C(=O)N[C@@H](CC(C)C)C(=O)N[C@@H](CC(C)C)C(=O)N[C@@H](CCCCN)C(=O)N[C@@H](CCC(N)=O)C(=O)N[C@@H](CCC(=O)O)C(=O)N[C@@H](CCCNC(=N)N)C(=O)N[C@@H](CCC(N)=O)C(=O)N[C@@H](CCCCN)C(=O)N[C@@H](CCCCN)C(=O)N[C@@H](CCC(N)=O)C(=O)N[C@@H](CCCNC(=N)N)C(=O)N[C@@H](CCC(=O)O)C(=O)N[C@@H](CCC(N)=O)C(=O)N[C@@H](C)C(=O)N[C@@H](CCC(=O)O)C(=O)N[C@@H](CCCCN)C(=O)N[C@@H](CC(N)=O)C(=O)N[C@@H](CCCCN)C(=O)N[C@@H](CCC(N)=O)C(=O)N[C@H](C(=O)N[C@@H](CC(C)C)C(=O)N[C@@H](CCC(=O)O)C(=O)N[C@@H](CCC(N)=O)C(=O)N[C@H](C(N)=O)C(C)C)[C@@H](C)CC)[C@@H](C)CC)C(=O)O) [peptide of SEQ ID NO: 212] |
